As usually defined, the Kd is the constant that tells how readily two partners part at equilibrium. Broadly, the EC50 (read off the curve) is the concentration that produces a half-maximal response. Higher therefore signals weaker potency. As usually defined, the EC50 is the midpoint of the concentration-response curve.

The source of these data is patent US20220235117A1.

For assay [1], the target named is hepatitis B virus surface antigen (HBsAg) (hepatitis B virus). The assay is described as follows: SPR, Biacore 3000, HBsAg on CM5 chip, antibody as analyte, pH 7.4.
Assay [2] has the same target. The assay can be described thus: ELISA, commercial HBsAg plate, well held 30 min in PBS pH 6.0 after binding, GAH-HRP secondary antibody, OD(450/630). Background: In an ELISA, binding on a coated surface is turned into a signal by an enzyme label.
For assay [3] the target is unchanged. The assay can be described thus: ELISA, commercial HBsAg plate, well held 30 min in PBS pH 7.4 after binding, GAH-HRP secondary antibody, OD(450/630).
Assay [4] has the same target. The assay is described as follows: ELISA on commercial HBsAg plate, pH 7.4.
Assay [5] shares this target. The assay can be described thus: ELISA on commercial HBsAg plate, pH 6.0.
Assay [6] shares this target. The assay is described as follows: ELISA on commercial HBsAg plate, ratio of EC50 at pH 6.0 to pH 7.4.

Positions count from the first letter of the chain named. Names may count otherwise.

B1: anti-HBV humanized antibody M1D (antibody, V domains shown)
VH: QVQLQESGPGLVKPSETLSLTCTVSGGSITSNFWSWIRQPPGKGLEWIGYISGSGTYTDYNPSLKSRVTISVDTSKNQFSLKLSSVTAADTAVYYCARSHDYGSNDYAFDFWGQGTTVTVSS
VL: DIQMTQSPSSLSASVGDRVTITCRATQDISSSLNWYQQKPGKAPKLLIYYANRLQSGVPSRFSGSGSGTDFTLTISSLQPEDFATYYCQQYHSLPLTFGGGTKVEIK
In the case of B1, in assay [1], the Kd amounted to 0.534 nM. Besides, the 50% effective concentration (EC50 (read off the curve)) in assay [2] and in assay [3] was 10 ng/mL each time.

B2: A42-23 (antibody, human IgG1, kappa, V domains shown)
VH: B1 VH with S31H, S54Y, G55D, S104H, N105H
VL: DIQMTQSPSSLSASVGDRVTITCRATQDIHHSLNWYQQKPGKAPKLLIYYANRLQSGVPSRFSGSGSGTDFTLTISSLQPEDFATYYCQQYHYLPLTFGGGTKVEIKR
Consider B2, for which the 50% effective concentration (EC50) in assay [4] worked out at 0.0127 µg/mL; in assay [5], 0.345 µg/mL. For the same molecule, the EC50(pH 6.0)/EC50(pH 7.4) in assay [6] worked out at 27.2.
